Measurements from patent US5955431A, “Mast cell protease peptide inhibitors” (Brigham and Women's Hospital, Inc., priority 1998, dated 1999).
Where a SMILES comes first, the peptide text is derived from it. Where no end group is shown, it is not given here. The star is where a group is joined. pNA = O=[N+]([O-])c1ccc(N*)cc1; Tos = Cc1ccc(S(=O)(=O)*)cc1; Bz = O=C(c1ccccc1)*

T1: recombinant mMCP-6-FLAG (Mus musculus, UniProt P21845)
T1 construct: endogenous pro-peptide followed by EK-susceptible peptide (Asp-Asp-Asp-Asp-Lys) (N, cleaved yes); made in house; host or cells: baculovirus; Spodoptera frugiperda 9 for virus, Trichoplusia ni High Five insect cells for expression
T1 sequence (P21845 32-276): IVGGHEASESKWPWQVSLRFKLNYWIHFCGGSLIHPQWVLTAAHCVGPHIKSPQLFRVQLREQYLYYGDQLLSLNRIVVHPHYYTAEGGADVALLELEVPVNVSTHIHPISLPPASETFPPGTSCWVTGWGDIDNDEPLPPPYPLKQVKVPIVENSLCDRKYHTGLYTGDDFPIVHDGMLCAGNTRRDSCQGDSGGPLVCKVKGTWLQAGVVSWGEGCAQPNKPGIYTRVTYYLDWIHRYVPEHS

T2: mMCP-6/heparin complex (Mus musculus, UniProt P21845)
T2 construct: endogenous pro-peptide followed by EK-susceptible peptide (Asp-Asp-Asp-Asp-Lys) (N, cleaved yes); made in house; host or cells: baculovirus; Spodoptera frugiperda 9 for virus, Trichoplusia ni High Five insect cells for expression
T2 sequence (P21845 32-276): T1 sequence (P21845 32-276)

B1: mMCP-6-FLAG/heparin complex: recombinant mMCP-6-FLAG bound to heparin glycosaminoglycan (protein, UniProt P21845 32-276, looked up)
Tryptase beta-2: T1 sequence (P21845 32-276)
modifications: C-terminal FLAG tag; complexed with heparin
B2: trypsin: serine protease used as comparison in fibroblast adhesion test (protein, UniProt P00760 24-246, looked up)
Serine protease 1: IVGGYTCGANTVPYQVSLNSGYHFCGGSLINSQWVVSAAHCYKSGIQVRLGEDNINVVEGNEQFISASKSIVHPSYNSNTLNNDIMLIKLKSAASLNSRVASISLPTSCASAGTQCLISGWGNTKSSGTSYPDVLKCLKAPILSDSSCKSAYPGQITSNMFCAGYLEGGKDSCQGDSGGPVVCSGKLQGIVSWGSGCAQKNKPGVYTKVCNYVSWIKQTIASN

biological target: T1, recombinant mMCP-6-FLAG; experiment: spectrophotometric cleavage of trypsin-susceptible p-nitroanilide substrates by EK-activated mMCP-6-FLAG; assay type: biochemical; details: in the absence of heparin
Description: Purified pro-EK-mMCP-6-FLAG (~100 μg in 100 μl) was separately mixed with 100 μl of a pH 5.2 buffer consisting of 50 mM sodium acetate and 5 mM calcium chloride. One μl of a solution containing 550 U of calf intestine EK (Biozyme) was added to each, and the mixture was incubated at 37° C. generally for 3 h to allow EK to activate the zymogen in the absence of heparin. The spectrophotometric method of Svendsen and coworkers (Throm. Res. 1972, 1:267-278) was used to determine whether or not mMCP-6-FLAG is enzymatically active. Generally, 1-μl samples of each activation reaction were placed in 1 ml of a pH 7.4 buffer containing 25 mM sodium phosphate, 1 mM EDTA, and 50 μg of tosyl-Gly-Pro-Lys-p-nitroanilide. The change in optical density at 405 nm was then determined after a 3-min incubation at room temperature. The ability of recombinant mMCP-6-FLAG to cleave the trypsin-susceptible substrates tosyl-Gly-Pro-Arg-p-nitroanilide, benzoyl-Ile-Glu-Gly-Arg-p-nitroanilide, benzoyl-Pro-Phe-Arg-p-nitroanilide, and acetyl-Ile-Glu-Ala-Arg-p-nitroanilide were also evaluated.

In the case of `Cc1ccc(S(=O)(=O)NCC(=O)N2CCC[C@H]2C(=O)N[C@@H](CCCNC(=N)N)C(=O)Nc2ccc([N+](=O)[O-])cc2)cc1` [tosyl-Gly-Pro-Arg-p-nitroanilide] (Tos-Gly-Pro-Arg-pNA), the “cleavage of substrate by EK-activated tryptase (mMCP-6-FLAG)” value is reported as “readily cleaves”.
With `Cc1ccc(S(=O)(=O)NCC(=O)N2CCC[C@H]2C(=O)N[C@@H](CCCCN)C(=O)Nc2ccc([N+](=O)[O-])cc2)cc1` [tosyl-Gly-Pro-Lys-p-nitroanilide] (Tos-Gly-Pro-Lys-pNA) the “cleavage of substrate by EK-activated tryptase (mMCP-6-FLAG)” value was “readily cleaves”.

same assay, conditions: in the presence or absence of heparin

With `CC[C@H](C)[C@H](NC(=O)c1ccccc1)C(=O)N[C@@H](CCC(=O)O)C(=O)NCC(=O)N[C@@H](CCCNC(=N)N)C(=O)Nc1ccc([N+](=O)[O-])cc1` [benzoyl-Ile-Glu-Gly-Arg-p-nitroanilide] (Bz-IEGR-pNA) the “cleavage of substrate by mMCP-6-FLAG” value was “does not effectively cleave”.
For `N=C(N)NCCC[C@H](NC(=O)[C@H](Cc1ccccc1)NC(=O)[C@@H]1CCCN1C(=O)c1ccccc1)C(=O)Nc1ccc([N+](=O)[O-])cc1` [benzoyl-Pro-Phe-Arg-p-nitroanilide] (Bz-Pro-Phe-Arg-pNA), the “cleavage of substrate by mMCP-6-FLAG” value was “does not effectively cleave”.

biological target: T1, recombinant mMCP-6-FLAG; experiment: screening of tryptase-specific phage peptide display library with mMCP-6-FLAG in the absence of heparin; assay type: biochemical; details: library incubated 4 times with mMCP-6-FLAG, 30 clones
Source text: (§1) Screening of a Tryptase-Specific, Bacteriophage Peptide Display Library with mMCP-6--A peptide display library that encodes an altered pIII containing at its N terminus the FLAG peptide followed by an 8-residue hypervariable peptide was screened with recombinant mMCP-6-FLAG. Briefly, phage were obtained that express on their surface a pill fusion protein with an extension peptide consisting of the FLAG peptide and a hypervariable octamer peptide containing a Lys/Arg residue at the PI site. After the varied phages in the library were allowed to bind to the anti-FLAG IgG column, the immuno-affinity column was incubated with recombinant mMCP-6-FLAG in the presence or absence of heparin. Those phage recovered in the column's eluate were amplified, and the selection procedure was repeated one lo three times. By determining the nucleotide sequence of the relevant portion of the geneIII construct in each clone, the amino acid sequence of the mMCP-6-susceptible peptide in the random domain of the pIII fusion protein was deduced. To prepare the phage column used in the screening process, 10 ml of the phage-enriched supernatant was added to 2 ml of 20% polyethylene glycol (8 kDa; Sigma) and 2.5 M NaCl and the mixture incubated at 4° C. for 30 min. After a 30 min centrifugation at 10,000 g, the recombinant phage in the pellet were resuspended in 2 ml of 150 mM NaCl, 1 mM […], and 10 mM sodium phosphate, pH 7.0, and applied to a 1-ml affinity column containing the anti-FLAG M1 monoclonal antibody. The column was washed 3 times with 10 ml of the same pH 7.0 buffer to remove unbound phage. EK-activated mMCP-6-FLAG (~50 μg in 200 μl buffer) in the absence or presence of heparin glycosaminoglycan (~50 μg) was added, and the column was sealed and incubated at room temperature for 90 min. […] Log-phase E. coli were infected with the obtained phage to produce phagemid. Bacteria were again grown in 2×YT medium containing 2% glucose and the phagemid in the bacteria were converted to phage with the addition of helper phage. This screening procedure was repeated up to 4 times to select the phage in the library which are most susceptible to degradation by mMCP-6-FLAG.
(§2) E. coli was infected with resulting mMCP-6-FLAG-susceptible phage to generate phagemids. The infected bacteria were seeded onto a plate containing 1.5% agar, 2% Bacto-tryptone, 0.5% Bacto-yeast extract, 2% glucose, 0.09 M NaCl, 0.01 M MgCl2, and 100 μg/ml ampicillin. Individual clones were isolated and grown overnight at 37° C. in 2 ml of 2×YT medium containing 2% glucose with 50 μg/ml ampicillin. One ml of the overnight cultures were centrifuged at ~12,000 g for 5 min. The bacteria in the pellets were lysed and the DNAs were extracted with mini-prep method. The DNAs were digested with NotI and EcoRI restriction enzymes at 37° C. overnight. The digested DNA mini-preps were subjected to electrophoresis on a 1% agarose gel, and those individual phage clones with ~1300-bp inserts were selected for maxi-preparation of their DNAs using nucleobond DNA-binding columns (The Nest Group). The nucleotide sequences which encode the 8-mer, protease-susceptible peptide domains in the fusion proteins were determined.

ECRQRHTR and EEKKKHKK are the same in “Clones (number of clones with this mMCP-6-susceptible peptide)” value (“Clones” below): 1 for the first, 1 for the second.

FISRRVCR and GPRLRHPR are the same in “Clones” value: 1 for the first, 1 for the second.

IRFARSQA and KKIERRNT are the same in “Clones” value: 1 for the first, 1 for the second.

LCAKRLYR and LIALRSTT are the same in “Clones” value: 1 for the first, 1 for the second.

LSTSRASI and NLRKRKIK are the same in “Clones” value: 1 for the first, 1 for the second.

NSTVRKRK and PDNQRYIT are the same in “Clones” value: 1 for the first, 1 for the second.

PLILRSRA and PLPCKLDA are the same in “Clones” value: 1 for the first, 1 for the second.

PPPFRRSS and PTPLKHPR are the same in “Clones” value: 1 for the first, 1 for the second.

PYPPKRTP and QKRGREPR are the same in “Clones” value: 1 for the first, 1 for the second.

QRTKRKHN and RKPTKKNS are the same in “Clones” value: 1 for the first, 1 for the second.

RQNRRPSN and SLALRVWR are the same in “Clones” value: 1 for the first, 1 for the second.

SLSSRQSP and SPRPRSTP are the same in “Clones” value: 1 for the first, 1 for the second.

TGVHKPST and VRPARALH are the same in “Clones” value: 1 for the first, 1 for the second.

For VRPVKSFR, the “Clones” value was 2.

biological target: T2, mMCP-6/heparin complex; experiment: screening of tryptase-specific phage peptide display library with mMCP-6-FLAG in the presence of heparin; assay type: biochemical; details: four rounds of treatment, equal weight amount of heparin
Source text: as §1, §2

Compared with PKETKQTN, RNRQKTNN is higher in “Clones” value: 1 for the first, 4 for the second.

First: SLSSRQSP
Second: SVLPKLRI
The “Clones” value of the first is higher: 2 for the first, 1 for the second.

With TPLLKSWL the “Clones” value was 7.

same assay, conditions: mMCP-6/heparin complex

For RNRQKT [SEQ. ID NO. 1], the “susceptibility of the sequence to cleavage” value was “susceptible to cleavage by the mMCP-6/heparin complex”.

same assay, conditions: two rounds of treatment, equal weight amount of heparin

PFTHKSLS and PKETKQTN are the same in “Clones” value: 1 for the first, 1 for the second.

Compared with RNRQKTNN, SLSSRQSP is lower in “Clones” value: 11 for the first, 3 for the second.

Compared with SVLPKLRI, TPLLKSWL is higher in “Clones” value: 1 for the first, 5 for the second.

test system: mouse fibronectin; experiment: in vitro degradation of fibronectin by recombinant tryptases; assay type: biochemical; details: SDS-PAGE of digests
Description: In Vitro Degradation of Fibronectin by Recombinant mMCP-6-FLAG--Five μg of purified mouse fibronectin (Alexis) was suspended in 1 mM EDTA and 25 mM sodium phosphate, pH 7.4, containing 0.01 U EK, 0.5 μg recombinant pro-EK-mMCP-6-FLAG, 0.5 μg recombinant mMCP-6-FLAG (activated with 0.01 U EK), or 0.5 μg recombinant mMCP-7FLAG (activated with 0.01 U EK). After an incubated for various lengths of times, the resulting digests were subjected to SDS-PAGE. In one experiment, the N-terminal amino acid sequences; of the major fibronectin fragments in the mMCP-FLAG digest were determined.

B1 was tested, and the “cleavage of fibronectin in vitro” value was “readily cleaved”.

test system: Swiss albino mouse skin-derived 3T3 fibroblasts; experiment: adhesion and growth of fibroblasts on fibronectin-coated culture dishes; assay type: cell-based; details: 15 min at 37° C.
Description: However, these cells will become less adhesive and divide in vitro when they are trypsin treated. To determine if mMCP-6-FLAG could specifically alter the growth and/or adhesion of these cells, the fibroblasts were allowed to attach to replicate fibronectin-coated culture dishes and then were incubated for 15 min at 37° C. with buffer alone or buffer containing either pro-EK-mMCP-6-FLAG, mMCP-6-FLAG, mMCP-7-FLAG, or trypsin. […] SDS-PAGE/immunoblot analysis of the supernatants from the result cultures confirmed that fibronectin was degraded in the mMCP-6-FLAG-treated cultures but not in the pro-EK-mMCP-6-FLAG or mMCP-7-FLAG treated cultures.

With B2 the “adhesion/shape of fibroblasts on fibronectin-coated dishes” value was “rapidly induced the cultured fibroblasts to round up”.

same assay, conditions: 40 min incubation

For B2, the “fibroblasts remaining attached to the culture dish” value was “very few fibroblasts remained attached”.
